{
  "source": "patent US20230357354A1",
  "about": "“CD38-BINDING CD31 PEPTIDES AND USES THEREOF” (ENCEFA, priority 2020, published 2023)",
  "key": {"[1]": {"target": "recombinant human CD38 (Acrobio, ref CD8-H5224) (human), P28907", "assay": "SPR, Biacore 3000, CM5 chip, recombinant human CD38"}, "[2]": {"target": "human CD38 on cells (Daudi cells; CD38^+ Jurkat T cells) (human), P28907", "assay": "cell-based or functional assay"}},
  "data": [
    {"binder": "CMVKLKREKNPGDQNFVILEFC (modifications not checked)", "note": "[β-sheet-like folded peptide … (SEQ ID NO: 10), free peptide]", "values": [
      {"measurement": "Kd", "setting": "[1]", "value": 8.8, "unit": "nM"},
      {"measurement": "EC50, glucose uptake (2-NBDG fluorescence), human Daudi cells", "setting": "[2]", "value": 0.002, "unit": "nM"}
    ]}
  ]
}
